Assay results as given in US20140087995A1 (published 2014).
Numbered stars: 1 amine (or outer) side, 2 acyl side, 3 side chain; on linkers, the order of the positions; unused ones are H or OH. Bridge positions count the residues as written; N and C are the ends. Side chains are listed from the residue outwards. Ends that are not written are not given here. * marks the point of attachment. C20 diacid = O=C(O)CCCCCCCCCCCCCCCCCCC(=O)*; γGlu = O=C(O)[C@H](CCC(=O)[*:2])N[*:1]; AEEA = NCCOCCOCC(=O)O

T1: human calcitonin receptor (human, UniProt P30988 25-474)
T1 construct: whole, on cells; also called hCTR; hCT
T1 sequence (looked up): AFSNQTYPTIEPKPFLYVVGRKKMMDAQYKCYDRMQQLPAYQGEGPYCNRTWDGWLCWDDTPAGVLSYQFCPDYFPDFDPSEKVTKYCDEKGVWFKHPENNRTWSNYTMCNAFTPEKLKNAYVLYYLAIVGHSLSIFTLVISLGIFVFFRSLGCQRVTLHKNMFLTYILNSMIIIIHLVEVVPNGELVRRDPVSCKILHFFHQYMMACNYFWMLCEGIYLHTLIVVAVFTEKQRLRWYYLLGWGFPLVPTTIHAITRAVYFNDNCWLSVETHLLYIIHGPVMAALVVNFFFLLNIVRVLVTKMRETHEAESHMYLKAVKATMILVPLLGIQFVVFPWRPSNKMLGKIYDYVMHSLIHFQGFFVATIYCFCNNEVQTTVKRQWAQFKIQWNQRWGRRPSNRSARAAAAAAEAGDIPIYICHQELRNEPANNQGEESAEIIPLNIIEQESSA

B1: N^ε1-[2-[2-[2-[[(4S)-4-carboxy-4-(19-carboxynonadecanoylamino)butanoyl]amino]ethoxy]ethoxy]acetyl]-[His14,Arg17,Pro21,Pro27,Pro31]-h-amylin (peptide)
peptide: K([AEEA-γGlu-C20 diacid])CNTATCATQRLAHFLRHSSPNFGAIPSSTPVGSNTY-NH2
modifications: disulfide 2-7; N-terminus assumed
SMILES: CC[C@H](C)[C@H](NC(=O)[C@H](C)NC(=O)CNC(=O)[C@H](Cc1ccccc1)NC(=O)[C@H](CC(N)=O)NC(=O)[C@@H]1CCCN1C(=O)[C@H](CO)NC(=O)[C@H](CO)NC(=O)[C@H](Cc1c[nH]cn1)NC(=O)[C@H](CCCNC(=N)N)NC(=O)[C@H](CC(C)C)NC(=O)[C@H](Cc1ccccc1)NC(=O)[C@H](Cc1c[nH]cn1)NC(=O)[C@H](C)NC(=O)[C@H](CC(C)C)NC(=O)[C@H](CCCNC(=N)N)NC(=O)[C@H](CCC(N)=O)NC(=O)[C@@H](NC(=O)[C@H](C)NC(=O)[C@@H]1CSSC[C@H](NC(=O)[C@@H](N)CCCCNC(=O)COCCOCCNC(=O)CC[C@H](NC(=O)CCCCCCCCCCCCCCCCCCC(=O)O)C(=O)O)C(=O)N[C@@H](CC(N)=O)C(=O)N[C@@H]([C@@H](C)O)C(=O)N[C@@H](C)C(=O)N[C@@H]([C@@H](C)O)C(=O)N1)[C@@H](C)O)C(=O)N1CCC[C@H]1C(=O)N[C@@H](CO)C(=O)N[C@@H](CO)C(=O)N[C@H](C(=O)N1CCC[C@H]1C(=O)N[C@H](C(=O)NCC(=O)N[C@@H](CO)C(=O)N[C@@H](CC(N)=O)C(=O)N[C@H](C(=O)N[C@@H](Cc1ccc(O)cc1)C(N)=O)[C@@H](C)O)C(C)C)[C@@H](C)O
notes: also called compound 61
B2: N^ε1-[2-[2-[2-[[(4S)-4-carboxy-4-(19-carboxynonadecanoylamino)butanoyl]amino]ethoxy]ethoxy]acetyl]-[Ser14,Arg17,Pro21,Pro27,Pro31]-h-amylin (peptide)
peptide: K([AEEA-γGlu-C20 diacid])CNTATCATQRLASFLRHSSPNFGAIPSSTPVGSNTY-NH2
modifications: disulfide 2-7; N-terminus assumed
SMILES: CC[C@H](C)[C@H](NC(=O)[C@H](C)NC(=O)CNC(=O)[C@H](Cc1ccccc1)NC(=O)[C@H](CC(N)=O)NC(=O)[C@@H]1CCCN1C(=O)[C@H](CO)NC(=O)[C@H](CO)NC(=O)[C@H](Cc1c[nH]cn1)NC(=O)[C@H](CCCNC(=N)N)NC(=O)[C@H](CC(C)C)NC(=O)[C@H](Cc1ccccc1)NC(=O)[C@H](CO)NC(=O)[C@H](C)NC(=O)[C@H](CC(C)C)NC(=O)[C@H](CCCNC(=N)N)NC(=O)[C@H](CCC(N)=O)NC(=O)[C@@H](NC(=O)[C@H](C)NC(=O)[C@@H]1CSSC[C@H](NC(=O)[C@@H](N)CCCCNC(=O)COCCOCCNC(=O)CC[C@H](NC(=O)CCCCCCCCCCCCCCCCCCC(=O)O)C(=O)O)C(=O)N[C@@H](CC(N)=O)C(=O)N[C@@H]([C@@H](C)O)C(=O)N[C@@H](C)C(=O)N[C@@H]([C@@H](C)O)C(=O)N1)[C@@H](C)O)C(=O)N1CCC[C@H]1C(=O)N[C@@H](CO)C(=O)N[C@@H](CO)C(=O)N[C@H](C(=O)N1CCC[C@H]1C(=O)N[C@H](C(=O)NCC(=O)N[C@@H](CO)C(=O)N[C@@H](CC(N)=O)C(=O)N[C@H](C(=O)N[C@@H](Cc1ccc(O)cc1)C(N)=O)[C@@H](C)O)C(C)C)[C@@H](C)O
notes: also called compound 73
B3: N^ε1-[(4S)-4-carboxy-4-(19-carboxynonadecanoylamino)butanoyl]-[Arg14,Arg17,Pro21,Pro27,Pro31]-h-amylin (peptide)
peptide: K([γGlu-C20 diacid])CNTATCATQRLARFLRHSSPNFGAIPSSTPVGSNTY-NH2
modifications: disulfide 2-7; N-terminus assumed
SMILES: CC[C@H](C)[C@H](NC(=O)[C@H](C)NC(=O)CNC(=O)[C@H](Cc1ccccc1)NC(=O)[C@H](CC(N)=O)NC(=O)[C@@H]1CCCN1C(=O)[C@H](CO)NC(=O)[C@H](CO)NC(=O)[C@H](Cc1c[nH]cn1)NC(=O)[C@H](CCCNC(=N)N)NC(=O)[C@H](CC(C)C)NC(=O)[C@H](Cc1ccccc1)NC(=O)[C@H](CCCNC(=N)N)NC(=O)[C@H](C)NC(=O)[C@H](CC(C)C)NC(=O)[C@H](CCCNC(=N)N)NC(=O)[C@H](CCC(N)=O)NC(=O)[C@@H](NC(=O)[C@H](C)NC(=O)[C@@H]1CSSC[C@H](NC(=O)[C@@H](N)CCCCNC(=O)CC[C@H](NC(=O)CCCCCCCCCCCCCCCCCCC(=O)O)C(=O)O)C(=O)N[C@@H](CC(N)=O)C(=O)N[C@@H]([C@@H](C)O)C(=O)N[C@@H](C)C(=O)N[C@@H]([C@@H](C)O)C(=O)N1)[C@@H](C)O)C(=O)N1CCC[C@H]1C(=O)N[C@@H](CO)C(=O)N[C@@H](CO)C(=O)N[C@H](C(=O)N1CCC[C@H]1C(=O)N[C@H](C(=O)NCC(=O)N[C@@H](CO)C(=O)N[C@@H](CC(N)=O)C(=O)N[C@H](C(=O)N[C@@H](Cc1ccc(O)cc1)C(N)=O)[C@@H](C)O)C(C)C)[C@@H](C)O
notes: also called compound 63
B4: N^ε1-[2-[2-[2-[[(4S)-4-carboxy-4-(19-carboxynonadecanoylamino)butanoyl]amino]ethoxy]ethoxy]acetyl]-[Lys14,Arg17,Pro21,Pro27,Pro31]-h-amylin (peptide)
peptide: K([AEEA-γGlu-C20 diacid])CNTATCATQRLAKFLRHSSPNFGAIPSSTPVGSNTY-NH2
modifications: disulfide 2-7; N-terminus assumed
SMILES: CC[C@H](C)[C@H](NC(=O)[C@H](C)NC(=O)CNC(=O)[C@H](Cc1ccccc1)NC(=O)[C@H](CC(N)=O)NC(=O)[C@@H]1CCCN1C(=O)[C@H](CO)NC(=O)[C@H](CO)NC(=O)[C@H](Cc1c[nH]cn1)NC(=O)[C@H](CCCNC(=N)N)NC(=O)[C@H](CC(C)C)NC(=O)[C@H](Cc1ccccc1)NC(=O)[C@H](CCCCN)NC(=O)[C@H](C)NC(=O)[C@H](CC(C)C)NC(=O)[C@H](CCCNC(=N)N)NC(=O)[C@H](CCC(N)=O)NC(=O)[C@@H](NC(=O)[C@H](C)NC(=O)[C@@H]1CSSC[C@H](NC(=O)[C@@H](N)CCCCNC(=O)COCCOCCNC(=O)CC[C@H](NC(=O)CCCCCCCCCCCCCCCCCCC(=O)O)C(=O)O)C(=O)N[C@@H](CC(N)=O)C(=O)N[C@@H]([C@@H](C)O)C(=O)N[C@@H](C)C(=O)N[C@@H]([C@@H](C)O)C(=O)N1)[C@@H](C)O)C(=O)N1CCC[C@H]1C(=O)N[C@@H](CO)C(=O)N[C@@H](CO)C(=O)N[C@H](C(=O)N1CCC[C@H]1C(=O)N[C@H](C(=O)NCC(=O)N[C@@H](CO)C(=O)N[C@@H](CC(N)=O)C(=O)N[C@H](C(=O)N[C@@H](Cc1ccc(O)cc1)C(N)=O)[C@@H](C)O)C(C)C)[C@@H](C)O
notes: also called compound 74
B5: N^ε1-[2-[2-[2-[[(4S)-4-carboxy-4-(19-carboxynonadecanoylamino)butanoyl]amino]ethoxy]ethoxy]acetyl]-[His14,Arg17,Pro21,Pro27,Pro34]-h-amylin (peptide)
peptide: K([AEEA-γGlu-C20 diacid])CNTATCATQRLAHFLRHSSPNFGAIPSSTNVGPNTY-NH2
modifications: disulfide 2-7; N-terminus assumed
SMILES: CC[C@H](C)[C@H](NC(=O)[C@H](C)NC(=O)CNC(=O)[C@H](Cc1ccccc1)NC(=O)[C@H](CC(N)=O)NC(=O)[C@@H]1CCCN1C(=O)[C@H](CO)NC(=O)[C@H](CO)NC(=O)[C@H](Cc1c[nH]cn1)NC(=O)[C@H](CCCNC(=N)N)NC(=O)[C@H](CC(C)C)NC(=O)[C@H](Cc1ccccc1)NC(=O)[C@H](Cc1c[nH]cn1)NC(=O)[C@H](C)NC(=O)[C@H](CC(C)C)NC(=O)[C@H](CCCNC(=N)N)NC(=O)[C@H](CCC(N)=O)NC(=O)[C@@H](NC(=O)[C@H](C)NC(=O)[C@@H]1CSSC[C@H](NC(=O)[C@@H](N)CCCCNC(=O)COCCOCCNC(=O)CC[C@H](NC(=O)CCCCCCCCCCCCCCCCCCC(=O)O)C(=O)O)C(=O)N[C@@H](CC(N)=O)C(=O)N[C@@H]([C@@H](C)O)C(=O)N[C@@H](C)C(=O)N[C@@H]([C@@H](C)O)C(=O)N1)[C@@H](C)O)C(=O)N1CCC[C@H]1C(=O)N[C@@H](CO)C(=O)N[C@@H](CO)C(=O)N[C@H](C(=O)N[C@@H](CC(N)=O)C(=O)N[C@H](C(=O)NCC(=O)N1CCC[C@H]1C(=O)N[C@@H](CC(N)=O)C(=O)N[C@H](C(=O)N[C@@H](Cc1ccc(O)cc1)C(N)=O)[C@@H](C)O)C(C)C)[C@@H](C)O
notes: also called compound 68
B6: N^ε1-[2-[2-[2-[[(4S)-4-carboxy-4-(19-carboxynonadecanoylamino)butanoyl]amino]ethoxy]ethoxy]acetyl]-[His14,Arg17,Pro21,Pro27]-h-amylin (peptide)
peptide: K([AEEA-γGlu-C20 diacid])CNTATCATQRLAHFLRHSSPNFGAIPSSTNVGSNTY-NH2
modifications: disulfide 2-7; N-terminus assumed
SMILES: CC[C@H](C)[C@H](NC(=O)[C@H](C)NC(=O)CNC(=O)[C@H](Cc1ccccc1)NC(=O)[C@H](CC(N)=O)NC(=O)[C@@H]1CCCN1C(=O)[C@H](CO)NC(=O)[C@H](CO)NC(=O)[C@H](Cc1c[nH]cn1)NC(=O)[C@H](CCCNC(=N)N)NC(=O)[C@H](CC(C)C)NC(=O)[C@H](Cc1ccccc1)NC(=O)[C@H](Cc1c[nH]cn1)NC(=O)[C@H](C)NC(=O)[C@H](CC(C)C)NC(=O)[C@H](CCCNC(=N)N)NC(=O)[C@H](CCC(N)=O)NC(=O)[C@@H](NC(=O)[C@H](C)NC(=O)[C@@H]1CSSC[C@H](NC(=O)[C@@H](N)CCCCNC(=O)COCCOCCNC(=O)CC[C@H](NC(=O)CCCCCCCCCCCCCCCCCCC(=O)O)C(=O)O)C(=O)N[C@@H](CC(N)=O)C(=O)N[C@@H]([C@@H](C)O)C(=O)N[C@@H](C)C(=O)N[C@@H]([C@@H](C)O)C(=O)N1)[C@@H](C)O)C(=O)N1CCC[C@H]1C(=O)N[C@@H](CO)C(=O)N[C@@H](CO)C(=O)N[C@H](C(=O)N[C@@H](CC(N)=O)C(=O)N[C@H](C(=O)NCC(=O)N[C@@H](CO)C(=O)N[C@@H](CC(N)=O)C(=O)N[C@H](C(=O)N[C@@H](Cc1ccc(O)cc1)C(N)=O)[C@@H](C)O)C(C)C)[C@@H](C)O
notes: also called compound 69

Target: T1, human calcitonin receptor
Experiment: SPA competition with 125I-calcitonin, membranes of BHK hCTR cells (Assay VII)
Outline: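 BHK hCTR membranes 35 ng/μL + SPA beads 0.05 mg/well; buffer 50 mM Hepes pH 7.4, 1 mM CaCl2, 5 mM MgCl₂, 0.1% OA, 0.02% Tween20. 120 min, 25° C., shaking. Scintillation count; IC50 by one-site binding competition.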

Point of comparison: B4, IC50 79.9 nM. Against it:
- B1 — 9.9-fold lower, 8.11 nM
- B2 — 15-fold lower, 5.38 nM
- B3 — 1.6-fold higher, 130 nM
- B5 — 14-fold lower, 5.66 nM
- B6 — 9.2-fold lower, 8.68 nM
